Target: RelA homodimer (UniProt Q04206)
Test: BLI
Conditions: EMSA: 10 mM Tris-HCl pH 7.5, 50 mM NaCl, 10% glycerol, 1% NP-40, 1 mM EDTA, 0.1 mg/mL salmon sperm DNA, room temp; BLI: 25 mM Tris-HCl pH 7.5, 150 mM NaCl …

Chain of RelA homodimer (Q04206 whole entry): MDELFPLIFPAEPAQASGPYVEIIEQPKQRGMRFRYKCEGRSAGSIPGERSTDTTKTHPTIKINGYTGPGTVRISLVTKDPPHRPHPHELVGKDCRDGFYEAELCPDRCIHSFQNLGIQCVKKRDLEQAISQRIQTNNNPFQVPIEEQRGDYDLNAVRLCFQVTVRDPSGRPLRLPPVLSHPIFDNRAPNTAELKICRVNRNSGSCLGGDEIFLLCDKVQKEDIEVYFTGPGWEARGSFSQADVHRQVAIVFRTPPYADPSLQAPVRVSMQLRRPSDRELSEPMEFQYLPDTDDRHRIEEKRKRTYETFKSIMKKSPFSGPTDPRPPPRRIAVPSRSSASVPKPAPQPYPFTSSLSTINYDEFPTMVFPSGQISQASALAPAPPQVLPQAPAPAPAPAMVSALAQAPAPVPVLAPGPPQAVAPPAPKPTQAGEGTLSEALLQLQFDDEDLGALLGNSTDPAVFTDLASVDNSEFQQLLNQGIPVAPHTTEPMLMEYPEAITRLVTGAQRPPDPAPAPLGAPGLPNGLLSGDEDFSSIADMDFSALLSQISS

Row | Substance | Kd
1 | IFN-b1 kB (strong) | 27 nM
2 | STX11 kB (weak) | 250 nM

Reference: publication PMC12507517
